Results reported in the DeepSol protein solubility set.

Experiment: soluble on expression in E. coli; label from the status in PepcDB or PDB records

| Sequence | soluble on expression in E. coli |
| --- | --- |
| MGSLGFLAGGVMPLEQLKQELSEVKGVFGVNLFRPQTDAPKPSDIDELAGLLSSAFRQFGLDEPTVPTPDLSNGWEAKFEAVLAAKPAVFSCTFGIFSAEEFARIKATGIEAWVTVTNPEDALAAQKAGANALVVQGPEAGGHRSTWSIEVEPDERDLKTLLAAVKQAGVYLPLIAAGGLSTSADVAAILEAGASAASCGSAFLLSDEAGTSSLNREILDAAPALGLESVSSRAFSGRYARGVETRFTRSNEGLPPLYPYLNPMITSLRKVAGSAGNWDYAYCLVGVGLESIAKGSAKQILESLTPSALEHHHHHH | not soluble |
| MTDIAKLEPTAVWEHFQTLCDIPRPSKHEEQVRDYMKGWAELRGLETVVDKVGNLIIRKPATPGYEDRAGVVLQGHLDMVCQANSGTEHDFFKDPIRPVLKDGWLVAENTTLGADNGIGVALGMAVLSGDDVAHGPVEVLLTLDEEAGMGGALGLETGLLRGQYLINIDTEEWGEFYMGCAGGVDVNVTREYAVEAVPAGFQTASLTIKGLKGGHSGADIHLGRGNANKILIRLLRELEAETELRLSSLQGGTARNALSREAFAVVAYPTADAAKVAAKLDAFQALMRFELAGVDEGVSVLSEAAPAAGVLARADQDVILAALHAAPHGVKRMSQRVEGVVETSNNLGVVSVADGKVFANLMVRSLLDSGTWMLAREAESLFKLAAFKVEMEGGYPGWAPNPQSKLLALFKDVYRREFGAEAEVQVIHAGLECGILGSKYPNLDMVSFGPNIRGAHAPGERVEVESVGKAWQLLQAVLKAIPARLEHHHHHH | soluble |
| MYLAYYGFAEKPFQLKPDPNFFFPSRGHKRAAAYLEYGLSQEDGFIIITGDVGAGKTTLMRYLFQKLRQERVAAAQLVSTRLDPDDALRMVAAAFGLSYEGLSKAALLLELERFMRKCERESTRVLLVVDEAQNLLPQTLEELRMLSNFQSDNRPLLQTFLLGQPEFRRTLLGSQMQQLRQRVIATYHLGPLDQAETRAYIEHRLQKAGWNGSPVLQDEIFEVIHNFSAGIPRKINLFCDRLLIMGCLEELQTLGKAEANEVMLDIQKEFDLAVSPELEHHHHHH | soluble |
| MSFSGVKVSPECLEAFQELKLGKSLRYVVFKMNDTKTEIVVEKKSTDKDFDTFLGDLPEKDCRYAIYDFEFNLGEGVRNKIIFISWSPDVAPIKSKMVYSSSKDTLRRAFTGIGTDIQATDFSEVAYETVLEKVTRK | soluble |
| KQPKKSQPDLFYATDGTPILVGKNNLQNDQLTLRTAKKTDYWLHAKDIPGSHVIIRDAHPSEETLTEAALLAAYFSKYRLSSQVPVDYVQVKHVHK | not soluble |
| MPLFGSIFSPKKTPPRKSASLSNLHSLDRSTRELELGLDYGTPTMNLAGQSLKFENGQWVADSVISGGVDRRETQRLRKRNQQLEEENNLLRLKVDILLDMLSETTAESHLKDKELDELKVTNRRRK | not soluble |
| MSRLLLVWDAPNLDMGLGALLGGRPTTAHRPRFDAVGRWLLAKAGELAHTTGSKVESEATVFANVVPGSADSIRSWVEALRNVGFAVFAKPKLRDDTDVDPDMLAHIRKRFEEGDLAGVIVASADGRNFQETLDELASAGVAITVIGFHEHATWALADDRITFVDLEEIPGVFREPLPRVSLDNLPEEGAWLKPIRPLSALLSKSK | not soluble |
| MAVVMNWNNFSTNWDLKLLSLILAVIVWGGVSGGRTAELELTVPLELRNLPPGFSVASAVPTEASVTVAGPKILLLKLRSERIIIPLDARGVGEGTTLFTGLERRLGLPREATITRLFPATVEVRLIRSKTVQKPLEHHHHHH | not soluble |
| MAHHHHHHMVRRLEGNPVPTIGIIFMLHAHRTAHLKYYQSMSLFAIENVDVVWGAAGYSILKQTQGAWMALYDEAYVSENKVMPFGYLVQNGVLMPTSDPCNAANTLAGDGSATAKKWGGTSQQKHRYAYEADVVPRRSCIKARTRSADNSGRRVTFCSGDTEFGVF | not soluble |
| MHHHHHHSSGVDLGTENLYFQSMTKTWTLKKHFVGYPTNSDFELKTSELPPLKNGEVLLEALFLTVDPYMRVAAKRLKEGDTMMGQQVAKVVESKNVALPKGTIVLASPGWTTHSISDGKDLEKLLTEWPDTIPLSLALGTVGMPGLTAYFGLLEICGVKGGETVMVNAAAGAVGSVVGQIAKLKGCKVVGAVGSDEKVAYLQKLGFDVVFNYKTVESLEETLKKASPDGYDCYFDNVGGEFSNTVIGQMKKFGRIAICGAISTYNRTGPLPPGPPPEIVIYQELRMEAFVVYRWQGDARQKALKDLLKWVLEGKIQYKEYIIEGFENMPAAFMGMLKGDNLGKTIVKA | soluble |
| MIINNVKLVLENEVVNGSLEMQDGEIRAFAESQSRLPEAMDGEGGWLLPGLIELHTDNLDKFFTPRPKVDWPAHSAMSSHDALMVASGITTVLDAVAIGDVRDGGDRLENLEKMINAIEETQKRGVNRAEHRLHLRCELPHNTTLPLFEKLVQREPVTLVSLMDHSPGQRQFANREKYREYYQGKYSLTDAQMQQYEEEQLALAARWSQPNRESIAAMCRARQIALASHDDATHAHVAESHQLGSVIAEFPTTFEAAEASRKHGMNVLMGAPNIVRGGSHSGNVAASELAQLGLLDILSSDYYPASLLDAAFRVADDQSNRFTLPQAVKLVTKNPAQALNLQDRGVIGEGKRADLVLAHRKGNHIHIDHVWRQGKRVF | not soluble |
| MGSDKIHHHHHHMDPRHRRGARLRHHQRDVARGGSVPARRQAHRRVARGLGEPVFVTHLVFFCGHAGTGKTTLAKRLIGPLMRATGEAFCLLDKDTLYGRYSSAAMGALTSDPNDRDSPLYLKHLRDPEYQGLLDTARENLALGIGALVVGPLSREVRDRRILDRAWLGIGPEIALTVVWVHTAEDVAHQRIVARGNPNDAYKLAHWDEYRQRRFVPTGHECDGIVMFDNTAPSDADIDALLYRIVPPAPQATMVPPLPA | not soluble |
| MFFSFKIDGDELDKRMGGGVYVGQLFTIFGDNSEGKTLLSLRLAYGFLKNGISITYVSSQMPVREFISFSDALGYPVLNSVISGSMLYITPVFMLRRTRRANLDELINNDRIKEKSVLIIDSLNPGMFRDFEINSYMEKLRKFSENRVVIITANQASLDDATVLRINQLSTTIVTLHSKELGGVKRHFIDLVKYPMVVRSIQQSIPFRVEPGRGLIVEISSVS | not soluble |
| MDLHLTVDLKKTKTLIDLADQAHLIIEQTTKLPKKEAAILFLLIDNQLVALGLAEEKATYKEVSFDHSILLKPTWDTELAYLAQAFLDDAKESGLTLEATPTTVKIPKSAVATVTNYKETVTFILERFGYSLFKKPAPKKARPAKARHKWTKEVSQIPFYIDTRQSKATVFWQKRNEMLIKAGATMMPEAPLNKDGSVGFSARFGEKLRDERKGQFKDFVTTEDIVLKSVNEVGLFLYFAGTNSWLELVDENGKTLNEWTVVE | not soluble |
| MGSDKIHHHHHHAPKGAEARMIATVDAEQARTLRFLEVMVNQNSGSRNLEGVRRLRDIVVPEFTALGFTSRWIPMERTGRAGHLVLTHKGRQGAKKLLLIGHLDTVFEPDSPFQTYVLNGEKATGPGVGDDKGGIAVILAAVRAMNAAGTLKGASIEVFLTGDEEEAGSPTEVARADLVAAARAADVALDFEGLSRENGRDMGSIARRSSQSWSLTVEAKSGHSSGVWGANAGDGAIYAAAKIVNAFRTELPEPWLTLNVGLIAGGAEAEVAEDNAHVSAQGKTNIIPGEVIARGDLRTLSPEQNRAAMRKMEEIVGRPYPGVTSARIAFSEGYPPMAPTEGNKALLARLNQVNATLGLPEMQPLDPMKRGAGDISFVAEYIDGLVGLGPHSTGDHAPGETVDVPSIWTQAKRAALLMTRLSAEKSAR | not soluble |
| RSAEALFEKAVTPSDVGKLNRLVIPKHHAEKHFPLPSSNVSVKGVLLNFEDVNGKVWRFRYSYWNSSQSYVLTKGWSRFVKEKNLRAGDVVSFSRSNGQDQQLYIGWKSRSGSDLDA | soluble |
| MKKGTVLNSEISSVISRLGHTDTLVVCDAGLPIPNSTARIDMALTQGVPSFMQVVDVVTREMQVEAAILATEIKQQNPQLHETLLTHLEQLQQHQGNTIKISYTTHEQFKKLTADSQAVIRSGECSPYANVILCAGVTF | not soluble |
| MIETTAALAEACTELAKSEFITIDTEFLRETTFWPELCLVQMASPTLEVLVDPLAKGIDLTPMFELMANPNVVKVFHAARQDIEIIYHLGGLIPHPIFDTQVAAMVCGFGDSISYDQLVQKIKNVQIDKSSRFTDWSRRPLTEKQLDYALADVTHLRDVYLSLKAQLEREGRSLWLTEEMNILESRDTYDMHPDDAWLRLKSRLRKPTELAILKFVAAWREREARSRNVPRSRVLKDDGIFEIAQQQPKDAEALSRLRTIPKGWERSASGTAIIETVNAALALPKEEMPKAPRHSHAPEGSGAAVELLKVLLKLTADKHGVAAKVIANSDDLDKIASEGENATVAALTGWRRELFGDVALKLINGEVALRFAGKKVEAVEVEAAASES | not soluble |
| MSLSKIFVTGATGLIGIKLVQRLKEEGHEVAGFTTSENGQQKLAAINVKAYIGDILKADTIDQALADFKPEIIINQITDLKNVDMAANTKVRIEGSKNLIDAAKKHDVKKVIAQSIAFMYEPGEGLANEETSLDFNSTGDRKVTVDGVVGLEEETARMDEYVVLRFGWLYGPGTWYGKDGMIYNQFMDGQVTLSDGVTSFVHLDDAVETSIQAIHFENGIYNVADDAPVKGSEFAEWYKEQLGVEPNIDIQPAQPFERGVSNEKFKAQGGTLIYKTWKDGMNPIKEGHHHHHH | soluble |
| MIFEDKFIITTADEIPGLQLYSLGIASTISDNVDEIVENLRKQVKAKGGMGLIAFRITCADGKFLGYGTIVKADEAQFTMA | soluble |
| GMEKKSSYKTVLLGESSVGKSSIVLRLTKDTFHENTNTTIGASFCTYVVNLNDINIKNNSNNEKNNNINSINDDNNVIITNQHNNYNENLCNIKFDIWDTAGQERYASIVPLYYRGATCAIVVFDISNSNTLDRAKTWVNQLKISSNYIIILVANKIDKNKFQVDILEVQKYAQDNNLLFIQTSAKTGTNIKNIFYMLAEEIYKNIIN | soluble |
| MGSDKIHHHHHHMLRDLVYPPGCATCGLPVAKAGSLCSDCWCSVRFIERPYCEILGLPFGFDPGQGMVCAEAIANPPVFDRLRAAVVHDGAARDLVHRLKYGDRTDLAPMMAHWMIRAGGQELLRADAILPVPLHRWRLFSRQYNQSAELGRALAGLSDKPFLPGVLTRVKRTQKQVGLTEKARADNVRGAFKVAENRRDQVFGRHLVLVDDVYTTGATVSAATRALKRAGAVEVTVLTFAMALVTPI | not soluble |
| MKIYSQGDQAIVVSIEKNVSQRLTEDLLSLRAYLIDKSYPFITEIVATESDLMICYDARDMIKHHHIQSPFLYMKALIDSIKLEIRHHRQQLQAKYIQKQQSVNIPVIYGGEFGPDLQHLLKHLKLKLEDFVKLHTQEKYFVSMMGYSPGFPYLTGMNKKLHVNHTSEKKKFIPCGSVIMEGKKCGIVTTDTYNDWLVIGYTPVQLFFPEQQNFTLLKLGDNVTFESKDINEIELGDYKTCQSLEHHHHHH | not soluble |
| MAHHHHHHMPNSVDCDFLNAPAHPPCNNRISASSRSRDGASIRNIGSISNIGARNRGARNCDQVIHTVYVKYFEMERYLGNINYNMDYFNPVLNHPTKIEHGKIKILILDAPTNDLLPLYIKEMKNYNVTDLVRTCERTYNDGEITSAGINVHELIFPDGDAPTVDIVSNWLTIVNNVIKNNRAVAVHCVAGLGRAPVLASIVLIEFGMDPIDAIVFIRDRRKGAINKRQLQFLKAYKKKKKKKNCLRKCHFM | not soluble |
| LAIPEKRLSNNIILTKLKIALNLQAEQIISLLESVDFRISKPELSAFSRKVDHQHYRECKDQVLRNLLHAIDKTYHV | not soluble |
